Drawing on patent publication US20230183661A1, “BICOMPATIBLE PEPTIDEBIOCOMPATIBLE PEPTIDES FOR INHIBITION OF AGGREGATION OF B-AMYLOID PROTEIN” (Catholic University Industry Academic Cooperation Foundation, priority 2017, published 2023), this text covers Binding strength with β-amyloid, fluorescence recovery after photobleaching (FRAP) of Aβ in N2a cells, within 20 seconds and fluorescence recovery after photobleaching (FRAP) of Aβ in N2a cells, within 90 seconds for four substances.

The target in assay [1] is β-amyloid (Aβ) overexpressed in nerve cells (UniProt P05067). In words: Co-IP from N2a cells, relative score.
Assay [2] shares this target. In words: cell-based or functional assay.

Sequence of Peptide 5 (β 1-5 fragment of SOD1), NABi (Natural Amyloid β Binder and Amyloid β aggregation inhibitor) (P00441 2-91): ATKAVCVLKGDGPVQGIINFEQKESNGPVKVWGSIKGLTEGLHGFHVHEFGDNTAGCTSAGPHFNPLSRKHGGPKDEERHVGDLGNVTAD

In assay [1], “Peptide 2 (β 2-7/T fragment of SOD1) (from UniProt P00441 16-145)” came in with a Binding strength with β-amyloid of 3.5. The substance “Peptide 3 (β 4-6 fragment of SOD1) (from UniProt P00441 40-114)” gave a Binding strength with β-amyloid in assay [1] of 0. “Peptide 5 (β 1-5 fragment of SOD1), NABi (Natural Amyloid β Binder and Amyloid β aggregation inhibitor)” yielded a Binding strength with β-amyloid in assay [1] of 1. In assay [2], this substance showed a fluorescence recovery after photobleaching (FRAP) of Aβ in N2a cells, within 20 seconds of 50% and a fluorescence recovery after photobleaching (FRAP) of Aβ in N2a cells, within 90 seconds of 75%. In assay [1], “Peptide 6 (β 5-8 fragment of SOD1) (from UniProt P00441 81-154)” returned a Binding strength with β-amyloid of 0.
